Laboratory results: article PMC12421802

Molecular target: mutant MAP7D1 p.R201W (MAP7D1:c.601C>T), His/Myc-tagged (human) (UniProt Q3KQU3)
Test: pull-down; 600 µg lysate of HEK293T cells overexpressing His/Myc-MAP7D1 (wt or mutant) incubated with MagneHis Ni particles in 100 mM HEPES, 10 mM imidazole, 500 mM NaCl, 4°C, 4 h; eluted with 500 mM imidazole; western blot with Myc-tag and β-tubulin antibodies; β-tubulin normalised to precipitated Myc-MAP7D1

Chain of UniProt Q3KQU3 (Q3KQU3 whole entry R201W): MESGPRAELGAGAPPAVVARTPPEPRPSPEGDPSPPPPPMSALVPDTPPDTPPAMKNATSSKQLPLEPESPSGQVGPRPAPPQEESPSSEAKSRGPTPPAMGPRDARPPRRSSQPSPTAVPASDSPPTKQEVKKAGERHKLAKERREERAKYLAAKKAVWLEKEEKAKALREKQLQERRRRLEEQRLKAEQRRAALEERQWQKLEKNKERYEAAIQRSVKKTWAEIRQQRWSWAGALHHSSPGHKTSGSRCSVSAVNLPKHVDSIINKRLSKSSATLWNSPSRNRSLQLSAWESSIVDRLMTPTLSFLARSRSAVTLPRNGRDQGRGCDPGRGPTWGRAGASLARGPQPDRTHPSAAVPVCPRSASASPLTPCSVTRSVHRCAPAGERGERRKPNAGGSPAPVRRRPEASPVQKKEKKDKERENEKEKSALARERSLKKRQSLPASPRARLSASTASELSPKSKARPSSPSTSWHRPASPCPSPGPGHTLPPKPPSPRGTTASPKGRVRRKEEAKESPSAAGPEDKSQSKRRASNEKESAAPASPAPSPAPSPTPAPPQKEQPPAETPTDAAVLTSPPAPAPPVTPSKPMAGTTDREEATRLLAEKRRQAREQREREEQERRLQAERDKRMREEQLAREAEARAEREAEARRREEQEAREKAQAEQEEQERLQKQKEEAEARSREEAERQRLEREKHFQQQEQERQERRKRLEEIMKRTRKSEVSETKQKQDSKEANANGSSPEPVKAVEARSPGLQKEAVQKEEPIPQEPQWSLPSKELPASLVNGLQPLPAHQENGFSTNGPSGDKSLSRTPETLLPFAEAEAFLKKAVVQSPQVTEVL

decrease of co-precipitated tubulin relative to wild-type MAP7D1: 40%
Substance: β-tubulin (tubulin of microtubules) (from UniProt P07437 1-444) (natural protein)
